For series [1], the target named is T1, GST-SOX10 HMG (mouse, UniProt Q04888 80-185). The series is described as follows: competition; unlabeled excess against labeled WT SOD3 probe; did not effectively compete; 10 mM HEPES pH 8.0, 5% glycerol, 50 mM NaCl, 5 mM MgCl2, 2 mM DTT, 0.1 mM EDTA, 4 ug BSA, 2 ug poly(dIdC) in 35 ul; 25 min at room temperature; 5% PAGE in 1x TBE. Particulars: protein: recombinant; tags: N-terminal GST (pGEX-4T-1); blunt.

Series [2] addresses T1, GST-SOX10 HMG. The series is described as follows: EMSA; specific unlabeled probe abrogates the complex; 10 mM HEPES pH 8.0, 5% glycerol, 50 mM NaCl, 5 mM MgCl2, 2 mM DTT, 0.1 mM EDTA, 4 ug BSA, 2 ug poly(dIdC) in 35 ul; 25 min at room temperature; 5% PAGE in 1x TBE. Particulars: protein: recombinant; tags: N-terminal GST (pGEX-4T-1); label: 32P end label (probe); 3' overhang 4 nt on strand 1 as printed (20-mer/16-mer). Background: In EMSA bound probe runs differently from free probe, usually more slowly.

T1 sequence (Q04888 80-185): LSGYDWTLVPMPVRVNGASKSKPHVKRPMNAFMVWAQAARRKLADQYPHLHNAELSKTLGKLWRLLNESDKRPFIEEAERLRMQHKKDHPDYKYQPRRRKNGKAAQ

B1: SOD3 mutated probe (MT) (dsDNA)
DNA 1: GAAGAGGCAGACTGGTCTCT
DNA 2: AGAGACCAGTCTGCCTCTTC
Regarding B1, the binding result in the series with GST-SOX10 HMG [1] is “no binding”.

B2: SOD3 probe (WT) (dsDNA)
DNA 1: GAAGAGGCACAATGGTCTCT
DNA 2: ACCATTGTGCCTCTTC
Turning to B2, the binding result with GST-SOX10 HMG [2] was “binds”.

These data come from PMC2556353, “Identification of direct regulatory targets of the transcription factor Sox10 based on function and conservation”.
